Source: US20120178908A1 (Novo Nordisk, published 2012)
Values belong to the binder of their own block, whether it stands above or below them.

Columns and labels:
[1] = target: T1, TLT-1 18-188 relipidated in 20:80 PS:PC vesicles (human, UniProt Q86YW5 18-188); assay: cell-based or functional assay
T1 sequence: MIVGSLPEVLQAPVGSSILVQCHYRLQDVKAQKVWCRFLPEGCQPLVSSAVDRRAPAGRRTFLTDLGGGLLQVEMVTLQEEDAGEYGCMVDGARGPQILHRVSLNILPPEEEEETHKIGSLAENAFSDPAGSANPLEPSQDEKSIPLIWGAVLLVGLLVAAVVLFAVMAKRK

[2] = target: T2, TLT-1 receptor on the surface of activated human platelets (human, UniProt Q86YW5 16-311); assay: cell-based or functional assay
T2 sequence: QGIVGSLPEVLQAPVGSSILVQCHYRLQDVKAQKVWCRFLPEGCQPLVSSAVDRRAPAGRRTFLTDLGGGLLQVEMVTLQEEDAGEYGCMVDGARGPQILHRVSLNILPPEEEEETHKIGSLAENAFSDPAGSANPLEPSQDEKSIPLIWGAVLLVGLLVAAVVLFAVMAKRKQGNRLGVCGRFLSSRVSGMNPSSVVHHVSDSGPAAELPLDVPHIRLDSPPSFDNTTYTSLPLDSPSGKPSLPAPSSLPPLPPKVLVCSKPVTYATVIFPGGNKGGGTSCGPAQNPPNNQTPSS

[3] = target: T3, TLT-1 18-188 relipidated in 20:80 PS:PC vesicles (human) (UniProt Q86YW5)
T3 sequence: T1 sequence

[4] = target: T4, TLT-1 receptor on the surface of activated human platelets (human) (UniProt Q86YW5)
T4 sequence: T2 sequence

B5: Fab 0012-LC-L1-TF;VH-CH1-HPC4 (protein)
light chain-linker-TF: DVVMTQTPLSLPVSLGDQASISCRSSQSLVHRNGNTYFHWCLQKPGQSPKLLIYKVSNRFSGVPDRFSGSGSGTDFTLKISRVEAEDLGVYFCSQSTHVPYTFGGGTKLEIKRTVAAPSVFIFPPSDEQLKSGTASVVCLLNNFYPREAKVQWKVDNALQSGNSQESVTEQDSKDSTYSLSSTLTLSKADYEKHKVYACEVTHQGLSSPVTKSFNRGECGSSGTTNTVAAYNLTWKSTNFKTILEWEPKPVNQVYTVQISTKSGDWKSKCFYTTDTECDLTDEIVKDVKQTYLARVFSYPAGNVESTGSAGEPLYENSPEFTPYLETNLGQPTIQSFEQVGTKVNVTVEDERTLVRRNNTFLSLRDVFGKDLIYTLYYWKSSSSGKKTAKTNTNEFLIDVDKGENYCFSVQAVIPSRTVNRKSTDSPVECMGQEKGEFRE
VH-CH1-HPC4: EVKLLESGGGLVQPGGSLKLSCAASGFDFSRYWMTWVRQAPGKGLEWIGEINPDSSTINYTPSLKDKFIISRDNAKNTLYLQMSEVRSEDTALYYCASGVFTSWGQGTLVTVSAASTKGPSVFPLAPCSRSTSESTAALGCLVKDYFPEPVTVSWNSGALTSGVHTFPAVLQSSGLYSLSSVVTVPSSSLGTKTYTCNVDHKPSNTKVDKRVESKEDQVDPRLIDGK
FVII-mediated FXa generation % Activity lipidated TLT-1 [3]: 97%
FVIIa-mediated FXa generation % Activity lipidated TLT-1 [3]: 101%
FVII-mediated FXa generation % Activity activated plts (n 4) [4]: 111%
FVIIa-mediated FXa generation % Activity activated plts (n 1) [4]: 125%

B6: Fab 0012-LC-L7-TF;VH-CH1-HPC4 (protein)
light chain-linker-TF: DVVMTQTPLSLPVSLGDQASISCRSSQSLVHRNGNTYFHWCLQKPGQSPKLLIYKVSNRFSGVPDRFSGSGSGTDFTLKISRVEAEDLGVYFCSQSTHVPYTFGGGTKLEIKRTVAAPSVFIFPPSDEQLKSGTASVVCLLNNFYPREAKVQWKVDNALQSGNSQESVTEQDSKDSTYSLSSTLTLSKADYEKHKVYACEVTHQGLSSPVTKSFNRGECGGGGSGGGGSGGGGSGSGGGGSGGGGSGGGGSSGTTNTVAAYNLTWKSTNFKTILEWEPKPVNQVYTVQISTKSGDWKSKCFYTTDTECDLTDEIVKDVKQTYLARVFSYPAGNVESTGSAGEPLYENSPEFTPYLETNLGQPTIQSFEQVGTKVNVTVEDERTLVRRNNTFLSLRDVFGKDLIYTLYYWKSSSSGKKTAKTNTNEFLIDVDKGENYCFSVQAVIPSRTVNRKSTDSPVECMGQEKGEFRE
VH-CH1-HPC4: B5 VH-CH1-HPC4
FVII-mediated FXa generation % Activity lipidated TLT-1 [3]: 95%
FVIIa-mediated FXa generation % Activity lipidated TLT-1 [3]: 98%
FVII-mediated FXa generation % Activity activated plts (n 1) [4]: 92%
FVIIa-mediated FXa generation % Activity activated plts (n 1) [4]: 95%

B7: Fab 0012-LC-L3-TF;VH-CH1-HPC4 (protein)
light chain-linker-TF: DVVMTQTPLSLPVSLGDQASISCRSSQSLVHRNGNTYFHWCLQKPGQSPKLLIYKVSNRFSGVPDRFSGSGSGTDFTLKISRVEAEDLGVYFCSQSTHVPYTFGGGTKLEIKRTVAAPSVFIFPPSDEQLKSGTASVVCLLNNFYPREAKVQWKVDNALQSGNSQESVTEQDSKDSTYSLSSTLTLSKADYEKHKVYACEVTHQGLSSPVTKSFNRGECGSGGGGSGGGGSSGTTNTVAAYNLTWKSTNFKTILEWEPKPVNQVYTVQISTKSGDWKSKCFYTTDTECDLTDEIVKDVKQTYLARVFSYPAGNVESTGSAGEPLYENSPEFTPYLETNLGQPTIQSFEQVGTKVNVTVEDERTLVRRNNTFLSLRDVFGKDLIYTLYYWKSSSSGKKTAKTNTNEFLIDVDKGENYCFSVQAVIPSRTVNRKSTDSPVECMGQEKGEFRE
VH-CH1-HPC4: B5 VH-CH1-HPC4
FVII-mediated FXa generation % Activity lipidated TLT-1 [3]: 98%
FVIIa-mediated FXa generation % Activity lipidated TLT-1 [3]: 105%
FVII-mediated FXa generation % Activity activated plts (n 1) [4]: 98%
FVIIa-mediated FXa generation % Activity activated plts (n 1) [4]: 97%

B8: Fab 0012-LC-L6-TF;VH-CH1-HPC4 (protein)
light chain-linker-TF: DVVMTQTPLSLPVSLGDQASISCRSSQSLVHRNGNTYFHWCLQKPGQSPKLLIYKVSNRFSGVPDRFSGSGSGTDFTLKISRVEAEDLGVYFCSQSTHVPYTFGGGTKLEIKRTVAAPSVFIFPPSDEQLKSGTASVVCLLNNFYPREAKVQWKVDNALQSGNSQESVTEQDSKDSTYSLSSTLTLSKADYEKHKVYACEVTHQGLSSPVTKSFNRGECGGGGSGGGGSGSGGGGSGGGGSGGGGSSGTTNTVAAYNLTWKSTNFKTILEWEPKPVNQVYTVQISTKSGDWKSKCFYTTDTECDLTDEIVKDVKQTYLARVFSYPAGNVESTGSAGEPLYENSPEFTPYLETNLGQPTIQSFEQVGTKVNVTVEDERTLVRRNNTFLSLRDVFGKDLIYTLYYWKSSSSGKKTAKTNTNEFLIDVDKGENYCFSVQAVIPSRTVNRKSTDSPVECMGQEKGEFRE
VH-CH1-HPC4: B5 VH-CH1-HPC4
FVII-mediated FXa generation % Activity lipidated TLT-1 [3]: 94%
FVIIa-mediated FXa generation % Activity lipidated TLT-1 [3]: 101%
FVII-mediated FXa generation % Activity activated plts (n 1) [4]: 95%
FVIIa-mediated FXa generation % Activity activated plts (n 1) [4]: 91%

B9: Fab 0012-LC-L2-TF;VH-CH1-HPC4 (protein)
light chain-linker-TF: DVVMTQTPLSLPVSLGDQASISCRSSQSLVHRNGNTYFHWCLQKPGQSPKLLIYKVSNRFSGVPDRFSGSGSGTDFTLKISRVEAEDLGVYFCSQSTHVPYTFGGGTKLEIKRTVAAPSVFIFPPSDEQLKSGTASVVCLLNNFYPREAKVQWKVDNALQSGNSQESVTEQDSKDSTYSLSSTLTLSKADYEKHKVYACEVTHQGLSSPVTKSFNRGECGSGGGGSSGTTNTVAAYNLTWKSTNFKTILEWEPKPVNQVYTVQISTKSGDWKSKCFYTTDTECDLTDEIVKDVKQTYLARVFSYPAGNVESTGSAGEPLYENSPEFTPYLETNLGQPTIQSFEQVGTKVNVTVEDERTLVRRNNTFLSLRDVFGKDLIYTLYYWKSSSSGKKTAKTNTNEFLIDVDKGENYCFSVQAVIPSRTVNRKSTDSPVECMGQEKGEFRE
VH-CH1-HPC4: B5 VH-CH1-HPC4
FVII-mediated FXa generation % Activity lipidated TLT-1 [3]: 96%
FVIIa-mediated FXa generation % Activity lipidated TLT-1 [3]: 106%
FVII-mediated FXa generation % Activity activated plts (n 4) [4]: 96%
FVIIa-mediated FXa generation % Activity activated plts (n 1) [4]: 112%

Next, values leading:

FVII-mediated FXa generation % Activity lipidated TLT-1 [1]: 1%
FVIIa-mediated FXa generation % Activity lipidated TLT-1 [1]: 13%
FVII-mediated FXa generation % Activity activated plts (n 1) [2]: 2%
FVIIa-mediated FXa generation % Activity activated plts (n 1) [2]: 4%
B1: hTF.1-219 (soluble tissue factor) (receptor)
chain: SGTTNTVAAYNLTWKSTNFKTILEWEPKPVNQVYTVQISTKSGDWKSKCFYTTDTECDLTDEIVKDVKQTYLARVFSYPAGNVESTGSAGEPLYENSPEFTPYLETNLGQPTIQSFEQVGTKVNVTVEDERTLVRRNNTFLSLRDVFGKDLIYTLYYWKSSSSGKKTAKTNTNEFLIDVDKGENYCFSVQAVIPSRTVNRKSTDSPVECMGQEKGEFRE

FVII-mediated FXa generation % Activity lipidated TLT-1 [3]: 98%
FVIIa-mediated FXa generation % Activity lipidated TLT-1 [3]: 106%
FVII-mediated FXa generation % Activity activated plts (n 4) [4]: 71%
FVIIa-mediated FXa generation % Activity activated plts (n 4) [4]: 80%
B2: Fab 0012-VH-CH1-L0-TF;LC-HPC4 (protein)
VH-CH1-TF, no linker: EVKLLESGGGLVQPGGSLKLSCAASGFDFSRYWMTWVRQAPGKGLEWIGEINPDSSTINYTPSLKDKFIISRDNAKNTLYLQMSEVRSEDTALYYCASGVFTSWGQGTLVTVSAASTKGPSVFPLAPCSRSTSESTAALGCLVKDYFPEPVTVSWNSGALTSGVHTFPAVLQSSGLYSLSSVVTVPSSSLGTKTYTCNVDHKPSNTKVDKRVESKSGTTNTVAAYNLTWKSTNFKTILEWEPKPVNQVYTVQISTKSGDWKSKCFYTTDTECDLTDEIVKDVKQTYLARVFSYPAGNVESTGSAGEPLYENSPEFTPYLETNLGQPTIQSFEQVGTKVNVTVEDERTLVRRNNTFLSLRDVFGKDLIYTLYYWKSSSSGKKTAKTNTNEFLIDVDKGENYCFSVQAVIPSRTVNRKSTDSPVECMGQEKGEFRE
light chain-HPC4: DVVMTQTPLSLPVSLGDQASISCRSSQSLVHRNGNTYFHWCLQKPGQSPKLLIYKVSNRFSGVPDRFSGSGSGTDFTLKISRVEAEDLGVYFCSQSTHVPYTFGGGTKLEIKRTVAAPSVFIFPPSDEQLKSGTASVVCLLNNFYPREAKVQWKVDNALQSGNSQESVTEQDSKDSTYSLSSTLTLSKADYEKHKVYACEVTHQGLSSPVTKSFNRGECEDQVDPRLIDGK

FVII-mediated FXa generation % Activity lipidated TLT-1 [3]: 0%
FVIIa-mediated FXa generation % Activity lipidated TLT-1 [3]: 0%
FVII-mediated FXa generation % Activity activated plts (n 1) [4]: 5%
FVIIa-mediated FXa generation % Activity activated plts (n 2) [4]: 5%
B3: Fab 0012-TF-L4b-VH-CH1;LC-HPC4 (protein)
TF-linker-VH-CH1: SGTTNTVAAYNLTWKSTNFKTILEWEPKPVNQVYTVQISTKSGDWKSKCFYTTDTECDLTDEIVKDVKQTYLARVFSYPAGNVESTGSAGEPLYENSPEFTPYLETNLGQPTIQSFEQVGTKVNVTVEDERTLVRRNNTFLSLRDVFGKDLIYTLYYWKSSSSGKKTAKTNTNEFLIDVDKGENYCFSVQAVIPSRTVNRKSTDSPVECMGQEKGEFREGGGGSGGGGSGGGGSGSEVKLLESGGGLVQPGGSLKLSCAASGFDFSRYWMTWVRQAPGKGLEWIGEINPDSSTINYTPSLKDKFIISRDNAKNTLYLQMSEVRSEDTALYYCASGVFTSWGQGTLVTVSAASTKGPSVFPLAPCSRSTSESTAALGCLVKDYFPEPVTVSWNSGALTSGVHTFPAVLQSSGLYSLSSVVTVPSSSLGTKTYTCNVDHKPSNTKVDKRVESK
light chain-HPC4: B2 light chain-HPC4

FVII-mediated FXa generation % Activity lipidated TLT-1 [3]: 87%
FVIIa-mediated FXa generation % Activity lipidated TLT-1 [3]: 93%
FVII-mediated FXa generation % Activity activated plts (n 2) [4]: 78%
FVIIa-mediated FXa generation % Activity activated plts (n 2) [4]: 81%
B4: Fab 0012-VH-CH1-L10-TF;LC-HPC4 (protein)
VH-CH1-linker-TF: EVKLLESGGGLVQPGGSLKLSCAASGFDFSRYWMTWVRQAPGKGLEWIGEINPDSSTINYTPSLKDKFIISRDNAKNTLYLQMSEVRSEDTALYYCASGVFTSWGQGTLVTVSAASTKGPSVFPLAPCSRSTSESTAALGCLVKDYFPEPVTVSWNSGALTSGVHTFPAVLQSSGLYSLSSVVTVPSSSLGTKTYTCNVDHKPSNTKVDKRVESKYGPPSPSSPAPEFLGGSGTTNTVAAYNLTWKSTNFKTILEWEPKPVNQVYTVQISTKSGDWKSKCFYTTDTECDLTDEIVKDVKQTYLARVFSYPAGNVESTGSAGEPLYENSPEFTPYLETNLGQPTIQSFEQVGTKVNVTVEDERTLVRRNNTFLSLRDVFGKDLIYTLYYWKSSSSGKKTAKTNTNEFLIDVDKGENYCFSVQAVIPSRTVNRKSTDSPVECMGQEKGEFRE
light chain-HPC4: B2 light chain-HPC4
